The labels stand for the following.
B1: full-length Sgt1 (untagged), Saccharomyces cerevisiae (natural protein, S. cerevisiae, UniProt Q08446 1-395, looked up)
chain: MPVEKDLKTAYKALYDEKEPLKALHLYDEILKGSPTNLTALIFKAACLEKLYFGFSDWHSDATMENAKELLDKALMTAEGRGDRSKIGLVNFRYFVHFFNIKDYELAQSYFKKAKNLGYVDDTLPLWEDRLETKLNKKNKKQKDSTNKHTIKPVESIENRGDNNSSHSPISPLKIETAPQESPKFKIDWYQSSTSVTISLFTVNLPESKEQVNIYISPNDRRTLSISYQVPKSGSEFQYNAKLSHEVDPKAVSLKIFPKKLEITLSKIDSTQWKKLEEDILTESSRLSDEGKNSDSATRLLSAETASKERLSYPSSSKKKIDWSKLDIDEEADEEAGSADSFFQKLYAGADPDTKRAMMKSFIESNGTALSTDWEDVSKGTVKTSPPEGMEPKHW
notes: Sgt1, S. cerevisiae, full length, untagged, cloned in MCSII of pColA-Duet; Dimer at working concentrations by SV-AUC and native MS, with minor monomer and trimer; also called Sgt1 FL; wt; source: E. coli BL21 Star (DE3), purified (cation exchange, gel filtration)
B2: His6-tagged full-length Sgt1 D61R (natural protein, S. cerevisiae, UniProt Q08446 1-395, looked up)
chain: B1 chain with D61R
notes: Sgt1, S. cerevisiae, full length, in pET28a, Asp61 to Arg; source: E. coli T7 Express LysY/Iq, purified (HisTrap FF, gel filtration); not shown: His6, N-terminal, kept
B3: Skp1∆1 (Skp1 with residues 65-74 deleted) (natural protein, S. cerevisiae, UniProt P52286 1-194, looked up)
chain: MVTSNVVLVSGEGERFTVDKKIAERSLLLKNYLNDMHDSNLQNNSDSESDSDSETNHKSKDNNNIVMPVPNVRSSVLQKVIEWAEHHRDSNFPDEDDDDSRKSAPVDSWDREFLKVDQEMLYEIILAANYLNIKPLLDAGCKVVAEMIRGRSPEEIRRTFNIVNDFTPEEEAAIRRENEWAEDR
notes: Skp1, S. cerevisiae, in the context of the full-length protein; the LCR (36-64) is retained, residues 65-74 are deleted; also called Skp1Δ1; Skp1d1; source: E. coli, purified (anion exchange, gel filtration)
B4: Sgt1 TPR domain construct (Sgt1TPR, residues 1-150) (domain or fragment, S. cerevisiae, UniProt Q08446 1-150, looked up)
chain: MPVEKDLKTAYKALYDEKEPLKALHLYDEILKGSPTNLTALIFKAACLEKLYFGFSDWHSDATMENAKELLDKALMTAEGRGDRSKIGLVNFRYFVHFFNIKDYELAQSYFKKAKNLGYVDDTLPLWEDRLETKLNKKNKKQKDSTNKHT
notes: Sgt1, S. cerevisiae, TPR domain, residues 1-150, untagged, cloned in MCSII of pColA-Duet; Treated as a dimer in the ITC fit; forms concentration-dependent trimers; three copies in the asymmetric unit; SeMet-Sgt1TPR was used for the SAD data set; source: E. coli T7 Express LysY/Iq, purified (cation exchange, gel filtration)

The target in data set [1] is full-length Sgt1 and Sgt1TPR (S. cerevisiae). The experiment in a line: ITC; VP-ITC, 25 °C, 20 mM HEPES pH 7.0, 150 mM NaCl, 1 mM β-mercaptoethanol; 130-160 μM Skp1 injected into 6-13 μM Sgt1 dimer; single site model assuming dimeric Sgt1. In general terms: ITC needs no label: the signal is the heat of the interaction.
For data set [2], the target named is Skp1∆1 (Skp1 with residues 65-74 deleted) (S. cerevisiae, UniProt P52286 1-194, residues 65–74 are deleted). Briefly: ITC.
Data set [3] deals with the molecule itself. The experiment in a line: AUC; sedimentation velocity, 20 °C, absorbance at 280 nm, continuous c(s) fit; Sgt1 at 4.5-22.3 μM monomer (His6-tagged WT and H59A at 11.2 μM).
Data set [4] concerns the molecule itself. Briefly: native MS; nano-electrospray, samples exchanged into 150 mM ammonium acetate pH 7; 4.5, 11.2 and 22.3 μM; spectra deconvoluted with Amphitrite.
For data set [5], the target named is B1. The experiment in a line: ITC; VP-ITC, 25 °C, 20 mM HEPES pH 7.0, 150 mM NaCl, 1 mM β-mercaptoethanol; 130-160 μM Skp1 injected into 6-13 μM Sgt1 dimer; single site model assuming dimeric Sgt1. Particulars: both partners purified.

Substitutions are numbered along the chain they refer to.

The Kd is the constant that tells how readily two partners part at equilibrium. Read a low Kd as tighter binding. The stoichiometry N is the number of molecules, sites or subunits per partner or assembly.

In turn, “full-length Skp1 (untagged), Saccharomyces cerevisiae (from UniProt P52286 1-194) (natural protein)” displayed a Kd in data set [1] of 600 to 700 nM. In the case of B1, in data set [2], binding was characterised by a dissociation constant (Kd) of 3900 nM. Moreover, the “stoichiometry N” value in data set [3] was 2. With B2, the “stoichiometry N” value in data set [4] was 2.

On to B3, for which the binding result in data set [5] is reported as “binds”. In the case of B4, the “stoichiometry N” value in data set [3] was 3.

Values taken from publication PMC5282575, “The crystal structure of the Sgt1-Skp1 complex: the link between Hsp90 and both SCF E3 ubiquitin ligases and kinetochores” (Scientific Reports, 2017).
